From patent publication US20200197498A1 (OHIO STATE INNOVATION FOUNDATION, published 2020)

B1: MVF-HER-2(266-296) (peptide)
peptide: KLLSLIKGVIVHRLEGVEGPSLLHCPALVTYNTDTFESMPNPEGRYTFGASCV
notes: Negative control peptide in SPR
B2: PD-1 (73-90) (peptide)
peptide: H-DFHMSVVRARRNDSGTYL-NH2
notes: Free peptide (H2N- at the N-terminus); also called free peptide
B3: PD-1 (45-64) (peptide)
peptide: H-KLAAFPEDRSQPGQDCRFR-NH2
notes: Free peptide (H2N- at the N-terminus); also called free peptide; 46-64
B4: PD-1 (92-110) (peptide)
peptide: H-GAISLAPKAQIKESLRAEL-NH2
notes: as for B2

Molecular target: T1, recombinant hPD-L1 ectodomain (human, UniProt Q9NZQ7 19-238)
T1 construct: extracellular domain; Immobilised on a CM5 chip by amine coupling (2345 RU); also called rhPD-L1; rPD-L1
T1 sequence (Q9NZQ7 19-238): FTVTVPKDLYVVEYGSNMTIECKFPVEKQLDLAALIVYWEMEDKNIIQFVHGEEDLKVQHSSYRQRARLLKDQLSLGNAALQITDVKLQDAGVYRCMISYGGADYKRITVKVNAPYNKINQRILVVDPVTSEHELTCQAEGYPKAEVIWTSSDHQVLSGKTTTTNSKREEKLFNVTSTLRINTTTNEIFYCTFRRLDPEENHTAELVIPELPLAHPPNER
Test: SPR (Biacore T200), rhPD-L1 immobilised on CM5 chip, 1 µM peptide injected

Binder | binding result | SPR response [RU]
Ac-GAISLAPKAQIKESLRAEL-NH2 (also called acetylated peptide) [AC-PD-1 (92-110)] | binds | –
Ac-KLAAFPEDRSQPGQDCRFR-NH2 (also called acetylated peptide) [AC-PD-1 (45-64)] | binds | –
Ac-DFHMSVVRARRNDSGTYL-NH2 (also called acetylated peptide) [AC-PD-1 (73-90)] | binds | –
B1 | – | 20
B2 | binds | –
B3 | binds | –
B4 | binds | –
